For 1 protein, Km, kcat and kcat/Km results are on record in article PMC3298459.

Substrate in data set [1]: O=C1O[C@@H](COP(=O)(O)O)[C@H](O)[C@@H]1O
As to the kind of experiment: purified protein. Particulars: [Co/Co] form, 2.5 mM Bicine pH 8.3, 0.2 M NaCl, 1% DMSO. In kind it is biochemical, Halalkalibacterium halodurans.

Substrate in data set [2]: O=C1O[C@H](COP(=O)(O)O)[C@H](O)[C@@H]1O
As to the kind of experiment: purified protein. In kind it is biochemical, Halalkalibacterium halodurans. Particulars: [Co/Co] form, 2.5 mM Bicine pH 8.3, 0.2 M NaCl, 1% DMSO.

B1: Bh0225 (Halalkalibacterium halodurans C-125) (protein)
chain: MSFIRTLRGDINPEELGFTYSHEHIVCRPDYWVQRQEGDLLLDDKEKSKRDVEDFKRHGGNSIVDATAVDYGRDVGAVKAISDELDVHIIGTAGFNKSFLWNAKIKEELKPIIGGQYDTFAEWIDGSTIHDLTEFVVREVEEGLEGTPWKAGQVKFGTGYNRISPLEEKTLRAVARAHHETKAPIHSHTEVGTMALEQIELLKSEGINLEHVSIGHMDRNPDPYYHEQIAKTGAFLSFDGIGKIKYAPESTRIHCILELVKKGYDQQILISGDTARKTYYKHYDYGLGLEYIIAKWIPRFISEANHRGFDGEALIHTFFVENPARCFAFKL
For B1, in the data set “purified protein [1]”, the Km was 200 ± 20 µM, the kcat amounted to 30 ± 1 s⁻¹ and the kcat/Km came to 150000 ± 15000 M⁻¹ s⁻¹. Further, in the data set “purified protein [2]”, the Km was determined as 240 ± 20 µM, the turnover number (kcat) amounted to 24 ± 1 s⁻¹ and the kcat/Km was determined as 100000 ± 10000 M⁻¹ s⁻¹.

By Km is commonly meant the concentration of substrate that gives half-maximal velocity. As a reminder, the kcat is the maximal rate divided by the concentration of active sites. As a reminder, the kcat/Km is the turnover number divided by the Michaelis constant.
